# The supplement of paper PMC10567573
# B1: MIA2 (parent)
# chain: SVIEPVQESSFRSRKIAVEDENDL
# B2: SLC19A2 (parent)
# chain: IYPVWTYSYLVLLFPVFLATDYLR
# Variants of: B1
# Test: protein stability index of a GFP-peptide fusion (GPS, HEK-293T) (PSI 1-6); higher = more stable
# Conditions: c terminus: a fixed tail appended
# 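Further: lentivirally expressed fusions sorted by FACS into six bins by GFP to DsRed ratio, PSI derived from sequencing read proportions per bin multiplied by bin number.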
row,Variant,protein stability index
1,E19I,4.25
2,E19C,4.62
3,E19H,4.56
4,E19N,5.08
5,E19M,4.62
6,E19W,4.15
7,E19Q,5.33
8,E19T,5.02
9,E19F,4.53
10,E19K,5.35
11,E19R,4.51
12,E19D,5.03
13,E19G,4.5
14,E19A,5.13
15,E19L,4.56
16,E19V,5.03
17,E19Y,4.67
18,E19S,5.31
19,E19P,5.32
20,L24D,5.26
21,L24I,4.66
22,L24E,5.67
23,L24W,4.73
24,L24N,5.67

row,Variant,protein stability index
1,L24R,5.49
2,L24F,5.19
3,L24Y,4.92
4,L24A,5.43
5,L24V,5.82
6,L24T,5.57
7,L24M,5.31
8,L24Q,5.51
9,L24K,5.12
10,L24C,5.32
11,L24S,5.88
12,L24G,5.75
13,L24H,5
14,L24P,5.42
15,V18C,5.03
16,V18P,5.32
17,V18F,5.36
18,V18L,4.56
19,V18G,5.18
20,V18I,5.3
21,V18N,5.1
22,V18A,5.35
23,V18S,5.69
24,V18E,5.53

row,Variant,protein stability index
1,V18K,5.63
2,V18T,4.94
3,V18H,5.36
4,V18D,4.18
5,V18Q,5.15
6,V18M,4.43
7,V18W,5.16
8,V18Y,5.21
9,V18R,5.72
10,N22D,5.84
11,N22R,5.09
12,N22C,5
13,N22I,4.89
14,N22S,3.82
15,N22F,4.96
16,N22G,5.04
17,N22K,5.04
18,N22Y,4.53
19,N22H,5.43
20,N22V,5.73
21,N22A,5.47
22,N22L,4.8
23,N22P,4.96
24,N22M,4.74

row,Variant,protein stability index
1,N22Q,5.77
2,N22E,5.08
3,N22T,5.33
4,N22W,4.35
5,I16Y,4.98
6,I16V,5.41
7,I16L,5.13
8,I16K,5.01
9,I16P,5.04
10,I16W,4.66
11,I16H,4.28
12,I16Q,5.15
13,I16N,5.6
14,I16G,5.42
15,I16S,5.45
16,I16R,5.22
17,I16M,5.42
18,I16T,5.37
19,D23Y,4.24
20,D23W,3.86
21,D23L,4.63
22,D23R,5.07
23,D23S,5.2
24,D23P,4.28

row,Variant,protein stability index
1,D23M,4.82
2,D23I,4.64
3,D23F,3.65
4,D23C,4.39
5,D23A,5.26
6,D23H,4.95
7,D23N,5.1
8,D23T,4.71
9,D23V,5.1
10,D23E,5.54
11,D23G,4.72
12,D23Q,5.83
13,D23K,4.95
14,A17N,5.45
15,A17P,5.66
16,A17K,5.59
17,A17M,5.55
18,A17Q,5.44
19,A17R,4.77
20,A17E,5.68
21,A17W,4.92
22,A17L,4.97
23,A17F,5.05
24,A17S,4.86

row,Variant,protein stability index
1,A17V,5.3
2,A17I,5.05
3,A17C,4.81
4,A17G,5.14
5,A17H,5.53
6,A17D,5.43
7,A17Y,4.87
8,A17T,5.09
9,E21C,4.32
10,E21D,5.38
11,E21A,4.83
12,E21S,5.23
13,E21Y,4.47
14,E21R,4.7
15,E21P,4.42
16,E21Q,5.29
17,E21M,4.32
18,E21G,5.27
19,E21N,4.74
20,E21F,4.31
21,E21T,5.19
22,E21V,4.9
23,E21W,3.85
24,E21H,4.63

row,Variant,protein stability index
1,E21I,4.46
2,E21K,5.05
3,E21L,4.62
4,D20N,5.57
5,D20K,5.13
6,D20Y,4.18
7,D20L,4.42
8,D20T,5.38
9,D20V,4.57
10,D20I,4.64
11,D20P,3.94
12,D20H,4.35
13,D20C,4.89
14,D20E,5.72
15,D20Q,5.25
16,D20M,4.8
17,D20A,4.63
18,D20W,4.1
19,D20R,4.94
20,D20F,3.83
21,D20G,5.21

# Variants of: B2
# Test: as above
# Conditions: c terminus: a fixed tail appended
row,Variant,protein stability index
1,L12H,3.3
2,L12T,2.41
